What all share (assay type): cell-based, human
Test [1] has as its system HRMEC. The test is described as follows: Tube formation assay (Matrigel). Particulars: HRMEC on matrigel, 100 ng/ml, 4 hours, vs unstimulated control. As for the experimental part: Cells were seeded 2 days prior to the experiment in a T75 in complete growth media and allowed to become ˜80% confluent. They were placed in low serum media overnight prior to use in the experiment. 96 well plates were coated with 60 μl of Matrigel Basement Membrane Matrix (Corning) and placed in a 370C incubator for 30 minutes to set as per manufacturer's instructions. HRMEC were then seeded onto the plates at a density of 8×10^4 cells/ml and treated as indicated with cytokine in triplicate. The plates were placed in an Incucyte and phase contrast images of the wells were taken at 10× for 30 minute intervals. The angiogenesis analyser plug-in for ImageJ was used to analyse the images.

The subject of test [2] is HRMEC. The test is described as follows: Proliferation assays (nuclei cell count, MTS/PMS). To be noted: 24 hours. How it is done:
HRMEC were seeded on coverslips in 6 well plates at a density of 5×10^4 cells/ml and allowed to grow overnight in growth media. They were then washed in PBS and placed in reduced serum media and incubated with treatment for 24 hour. The coverslip was then washed in PBS, fixed in ice cold methanol and stained with Hoechst (1:10000). The coverslips were then affixed to slides and imaged via fluorescence. N=10 images per slip were taken and averaged to give a cell count per coverslip. For the MTS/PMS assay (Promega) cells were seeded at a density of 5×10^4 cells/ml in a 96 well plate. They were allowed to grow overnight in complete growth media before being washed and placed in low-serum media with the treatment indicated for 24 hours before the MTS/PMS assay was carried out as per manufacturer's protocol.

In test [3] the test system is HRMEC. Nature of the test: HRMEC scratch wound healing / migration with IL-36 cytokines. To be noted: treatment applied at time of scratch, 100 ng/ml. How it is done: FIG. 4 illustrates IL-36 cytokines promote endothelial cell migration, wherein (A, B) are representational images of the HRMEC ‘scratch’ healing with (A) IL-36α (B) IL-36β treatment compared to control at 10× magnification, wherein purple dotted lines equate to the size of the wound as imaged using Image J; (C) is rate of wound healing in HRMEC treated with IL-36α expressed as % wound closure, representational of N=4 experiments, wherein two-way ANOVA was performed as statistical test; (D) is a comparison of the level of wound healing between untreated (unt.) and 100 ng/ml IL-36α at 4 and 24 hr post scratch, consolidated N=4 experiments, wherein two-way ANOVA with multiple comparison was performed as statistical test; (E) is rate of wound healing in HRMEC treated with IL-36β expressed as % wound closure, representational of N=4 experiments, wherein two-way ANOVA with multiple comparison performed as statistical test; (F) is a comparison of the level of wound healing between no treatment and 100 ng/ml IL-36β at 4 and 24 hr post scratch, consolidated N=4 experiments, wherein two-way ANOVA with multiple comparison was performed as statistical test;
Cells were seeded on to a 12-well plate and grown until they reached confluency. […] The area within the scratch was quantified using ImageJ software, and each timepoint was normalised to its baseline and expressed as % closure.

Test [4] deals with HRMEC transwell monolayer. The test is described as follows: Trans-endothelial electrical resistance (TEER) measurement. Particulars: 100 ng/ml, 6 hr, vs untreated control.
Test [5] deals with HRMEC transwell monolayer. The test is described as follows: Permeability assay (4 kDa FITC dextran flux, Papp). To be noted: 100 ng/ml, 6 or 24 hour exposure. How it is done: HRMEC were grown on transwells (Corning) for 5-7 days to polarize. The cells were placed in low serum media and treated with IL-36 cytokines for 6 or 24 hours, before 4 kDa FITC dextran (Sigma) diluted to 1 mg/ml in low serum media was placed in the apical chamber. Sampling aliquots were periodically removed from the basal chamber and placed in a 96 well plate. The basolateral chamber was then replenished with fresh media. This was repeated at 20-minute intervals for 2 hours. The fluorescence of FITC dextran was measured using a fluorescent plate-reader (BioTek) at an excitation wavelength of 485 nm and an emission wavelength of 520 nm. Relative fluorescence units (RFU) were converted to ng/ml using a FITC dextran standard curve and corrected for background fluorescence and serial dilutions over the course of the experiment. The apparent permeability coefficient (Papp) was calculated as follows: […]
where dQ/dT is the apparent rate of FITC dextran appearance in the basolateral chamber, A (cm^2) is the surface area of the insert, C0 (mg/ml) is the initial FITC-dextran concentration in the apical chamber. dQ/dT is the slope (y=mx+c) calculated by plotting the cumulative amount (Q) against time(s).

Another test relates to VE-cadherin. Nature of the test: Western blot for VE-cadherin protein expression. Particulars: HRMEC, 24 h. How it is done: (§1) FIG. 6 illustrates IL-36 cytokines alter the protein levels of adherens and tight junction components in endothelial cells, wherein (A, B) are Western blot for VE-cadherin protein expression in response to (A) IL-36α, (B) IL-36β treatment for 24 hours at indicated doses in HRMEC, representative N=4 experiments; (C, D) are Western blot for the expression of tight junction proteins ZO-1, tricellulin and occludin in response to (C) IL-36α and (D) IL-36β treatment at indicated concentrations for 24 hours in HRMEC, representative of N=3 experiments; (E) is rate of flux of 70 kDa FITC dextran through HRMEC transwell monolayer with 6 hr pretreatment of 100 ng/ml IL-36α and/or 10 μM cycloheximide (CHX), with treatment applied to apical and basal chambers, representative of N=3 experiments; (F) is permeability apparent for HRMEC treated with IL-36α and/or 10 μM CHX, calculated as stated previously; (G) is rate of flux of 70 kDa FITC dextran through HRMEC transwell monolayer with 6 hr pretreatment of 100 ng/ml IL-36β and/or 10 μM CHX, with treatment applied to apical and basal chambers, representative of N=3 experiments; (H) is permeability apparent for HRMEC treated with IL-36β and/or CHX, calculated as stated previously, wherein T-tests were performed as statistical analysis;
(§2) Protein was extracted from cells using RIPA buffer containing protease inhibitors (Sigma). […]
(In general: In western blotting, separated proteins are transferred to a membrane and probed.)

The subject of test [6] is ZO-1, tricellulin and occludin. Nature of the test: Western blot for tight junction proteins. To be noted: HRMEC, 24 h, indicated concentrations. As for the experimental part:
as §1, §2

Test [7] has as its system HRMEC transwell monolayer. The test is described as follows: Inhibition of translation (cycloheximide) with 70 kDa FITC dextran flux. To be noted: 100 ng/ml cytokine plus 10 μM cycloheximide (CHX), 6 hr. How it is done: HRMEC were grown in transwells as above. Once polarised, HRMEC were treated with 10 μM of the translation inhibitor cycloheximide (Sigma) and/or IL-36 cytokine. 70 kDa FITC dextran (Sigma) diluted to 1 mg/ml in low serum media was placed in apical chamber and performing a FITC flux assay as described above.

In the next test the test system is VEGFR2. The test is described as follows: qPCR of VEGFR2 expression in HRMEC treated with IL-36 cytokines. To be noted: treatment over timepoints. The text has this: Primers used were sourced from Sigma.
In general terms: Real-time PCR tracks product formation cycle by cycle.

B1: IL-36α: recombinant human (rh) IL-36α (Peprotech) (protein, UniProt Q9UHA7 6-158, looked up)
Interleukin-36 alpha: KIDTPQQGSIQDINHRVWVLQDQTLIAVPRKDRMSPVTIALISCRHVETLEKDRGNPIYLGLNGLNLCLMCAKVGDQPTLQLKEKDIMDLYNQPEPVKSFLFYHSQSGRNSTFESVAFPGWFIAVSSEGGCPLILTQELGKANTTDFGLTMLF
On to B1, for which, in the test on HRMEC [1], the length of tubes result is on record as “potential ability to increase the length of the tubes”. Further, the “number of cells (stained nuclei count)” value with HRMEC [2] (100 ng/ml) is “increase in the number of cells”. Moreover, the “proliferation (MTS/PMS assay)” value in the test with HRMEC [2] (50 or 100 ng/ml) was “significant increase in proliferation”. Further, the “proliferation compared with VEGF (MTS/PMS assay)” value in the test on HRMEC [2] (VEGF 50 ng/ml positive control) was “neither cytokine was as effective as VEGF alone”. The “rate of wound closure and cell migration” value in the test with HRMEC [3] is “increased the rate of wound closure and cell migration significantly”. The TEER entry in test [4] was “significantly increased TEER”. Further, the “rate of FITC-dextran migrating across the HRMEC monolayer” value in test [5] is “notably decreased”. In addition, in the test with VE-cadherin, the VE-cadherin protein expression result was “Increased expression of VE-cadherin”. Moreover, the “expression of ZO-1, tricellulin and occludin protein” value in test [6] is recorded as “dose dependent increase in expression”. Also, in test [7], the “IL-36-dependent barrier enhancement under inhibition of protein translation” value is listed as “absolute loss”. The VEGFR2 expression result with VEGFR2 is given as “reduce VEGFR2 expression”.
